Measurements as given in patent US7829082B2, “Catheter composition and uses thereof” (Genentech, Inc., priority 2001, dated 2010).

Columns and labels:
[1] = 2 mg of alteplase or 10,000 U of urokinase, dwell 2 hours, up to two treatments; p=0.013; Haire et al.; cited from earlier work
[2] = biological target: T1, in vitro clot consisting of plasminogen and fibrin (Homo sapiens, UniProt P00747+P02671+P02675+P02679); assay: Purified clot lysis activity for rt-PA; format: biochemical
T1 construct: Plasminogen kept frozen at or below −60° C. until use; purchased Biocell (fibrinogen); Calbiochem (thrombin)
T1 sequence (P00747 20-810 limits assumed): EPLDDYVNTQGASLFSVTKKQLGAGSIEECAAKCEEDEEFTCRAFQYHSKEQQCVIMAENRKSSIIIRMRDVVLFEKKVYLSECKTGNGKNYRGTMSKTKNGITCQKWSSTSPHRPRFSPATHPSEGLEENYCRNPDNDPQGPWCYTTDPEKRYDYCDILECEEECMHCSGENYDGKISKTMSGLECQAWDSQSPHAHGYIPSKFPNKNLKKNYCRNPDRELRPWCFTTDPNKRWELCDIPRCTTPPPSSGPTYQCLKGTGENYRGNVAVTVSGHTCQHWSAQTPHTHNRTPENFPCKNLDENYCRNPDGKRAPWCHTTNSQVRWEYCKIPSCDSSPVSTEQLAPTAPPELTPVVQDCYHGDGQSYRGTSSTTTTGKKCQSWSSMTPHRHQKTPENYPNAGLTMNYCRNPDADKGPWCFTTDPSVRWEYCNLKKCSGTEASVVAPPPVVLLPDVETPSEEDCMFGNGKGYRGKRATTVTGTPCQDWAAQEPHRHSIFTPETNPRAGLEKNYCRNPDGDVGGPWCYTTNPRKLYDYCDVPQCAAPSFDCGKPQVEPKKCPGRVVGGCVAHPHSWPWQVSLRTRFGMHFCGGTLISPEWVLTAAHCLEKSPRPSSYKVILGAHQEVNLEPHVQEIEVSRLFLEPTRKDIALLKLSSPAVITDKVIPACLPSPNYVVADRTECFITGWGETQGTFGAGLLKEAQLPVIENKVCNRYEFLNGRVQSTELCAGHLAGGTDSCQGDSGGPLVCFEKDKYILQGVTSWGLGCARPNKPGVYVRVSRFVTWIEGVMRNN
T1 sequence (P02671 36-629 limits assumed): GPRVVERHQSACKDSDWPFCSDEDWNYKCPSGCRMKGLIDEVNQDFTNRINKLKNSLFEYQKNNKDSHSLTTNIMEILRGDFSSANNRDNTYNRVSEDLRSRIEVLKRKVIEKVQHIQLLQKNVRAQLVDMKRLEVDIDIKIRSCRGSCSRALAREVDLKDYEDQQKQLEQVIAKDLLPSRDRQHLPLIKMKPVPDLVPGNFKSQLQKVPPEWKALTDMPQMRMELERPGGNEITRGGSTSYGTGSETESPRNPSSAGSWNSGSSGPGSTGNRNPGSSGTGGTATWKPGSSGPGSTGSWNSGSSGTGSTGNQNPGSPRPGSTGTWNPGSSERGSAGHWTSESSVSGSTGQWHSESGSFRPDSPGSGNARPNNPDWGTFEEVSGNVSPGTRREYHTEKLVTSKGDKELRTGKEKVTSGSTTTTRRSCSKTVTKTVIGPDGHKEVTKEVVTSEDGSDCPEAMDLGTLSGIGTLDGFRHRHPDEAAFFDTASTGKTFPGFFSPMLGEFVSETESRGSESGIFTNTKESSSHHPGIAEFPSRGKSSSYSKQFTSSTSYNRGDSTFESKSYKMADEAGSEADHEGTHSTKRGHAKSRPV
T1 sequence (P02675 45-491 limits assumed): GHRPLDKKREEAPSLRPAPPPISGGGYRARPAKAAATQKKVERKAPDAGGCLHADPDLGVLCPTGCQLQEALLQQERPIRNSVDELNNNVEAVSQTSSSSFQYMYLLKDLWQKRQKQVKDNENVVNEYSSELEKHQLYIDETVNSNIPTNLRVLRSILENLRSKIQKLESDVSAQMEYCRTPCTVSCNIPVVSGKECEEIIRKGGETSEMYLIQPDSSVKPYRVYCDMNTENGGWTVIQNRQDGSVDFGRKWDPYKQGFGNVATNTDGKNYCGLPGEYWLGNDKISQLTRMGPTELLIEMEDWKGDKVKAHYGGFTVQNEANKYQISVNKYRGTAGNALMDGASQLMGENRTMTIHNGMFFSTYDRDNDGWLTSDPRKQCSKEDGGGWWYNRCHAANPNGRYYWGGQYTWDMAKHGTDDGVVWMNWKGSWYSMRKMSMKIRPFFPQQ
T1 sequence (P02679 27-437 isoform P02679-2 limits assumed): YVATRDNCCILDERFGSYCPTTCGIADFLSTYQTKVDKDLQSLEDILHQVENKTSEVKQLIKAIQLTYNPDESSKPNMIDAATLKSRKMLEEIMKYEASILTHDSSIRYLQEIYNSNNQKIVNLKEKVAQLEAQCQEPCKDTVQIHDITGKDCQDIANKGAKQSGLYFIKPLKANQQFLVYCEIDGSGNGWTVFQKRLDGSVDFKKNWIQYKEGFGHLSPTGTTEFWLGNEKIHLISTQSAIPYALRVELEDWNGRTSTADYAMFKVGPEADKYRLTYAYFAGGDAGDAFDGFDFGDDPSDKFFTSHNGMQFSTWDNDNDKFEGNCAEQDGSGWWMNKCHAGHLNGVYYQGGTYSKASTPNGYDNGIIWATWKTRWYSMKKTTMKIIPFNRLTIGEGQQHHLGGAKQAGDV
Procedure: (7) Purified clot lysis activity for rt-PA. […] Samples were diluted to assay range (200-1000 ng/mL) in two concentrations with diluent. Dilutions were performed the day before the assay and diluted samples were stored at 2-8° C. until analysis the next day. rt-PA reference material was diluted similarly as an internal reference.
2. Purified Clot Lysis Test (Microcentrifugal Analyzer (Test 1) and Plate Reader (Test 2)):
The potency of the alteplase t-PA protein was assessed by the purified clot lysis assay described below. Samples were diluted to assay range (200-1000 ng/mL) in three or two concentrations with diluent. Dilutions were performed the day before the assay and diluted samples were stored at 2-8° C. until analysis the next day. Rt-PA reference material was diluted similarly as an internal reference.
The assay works as follows: Reagents are substances added to a solution of another substance to participate in a chemical reaction. In this case, contents of boat 1 will react with contents of boat 2 to form a standardized clot. […] As the clot breaks apart, there is a change in the absorbance (light) characteristics. The absorbance is plotted versus time. […]
The endpoint (lysis time) may be determined by a computer program or manually. For automatic calculation by computer, the endpoint is the time required to lyse the clot, which is determined automatically. For manual endpoint determination, the endpoint is defined as the first time point below 0.03 absorbance units where the change is less than 0.003 abs unit. Specifically, for manual determination, the endpoint was determined from the absorbance time data. The first absorbance point less than 0.0300 was located. The endpoint was determined as the time of the first absorbance value less than 0.0300 if the change in absorbance between the current absorbance and the subsequent absorbance was less than 0.0030. If the delta absorbance was greater than 0.0030, one moved to the next absorbance reading and determined the delta absorbance. […]
The mean lysis time for each standard curve point was calculated. […]

[3] = Visual inspection of alteplase diluted in NS; format: physicochemical
Procedure: Alteplase (2 mg/vial rt-PA) was diluted to a concentration of 0.01, 0.025, 0.05, and 0.1 mg/mL final protein concentration in 0.9% NaCl (Normal Saline, NS)-containing IV bags (Baxter and/or Abbott, 250 mL). Specifically, rt-PA, protein bulk, was diluted to 1 mg/mL (50-mg vial formulation equivalent, 0.004% TWEEN 80™ surfactant) with filtered MILLI-Q™ water, or a 100-mg vial rt-PA was reconstituted to 1 mg/mL (0.008-0.011% TWEEN 80™ surfactant) with Sterile Water for Injection, USP (SWFI) using a 60-cc BD syringe and an 18 G needle directly inserted into the rubber septum of the vial at the center of the cake. The vial was gently mixed by slow inversions or rolling action until the cake was totally dissolved. IV diluent (0.9% NaCl, NS) was withdrawn and replaced with the same amount of the reconstituted or diluted 1 mg/mL rt-PA as follows:
After dilution into the IV bags (n=2 for each concentration), the bags were gently mixed by inversion (about 20-24 times). A 10-mL aliquot was withdrawn from the inlet port of the IV bag using a 10-cc BD syringe and 22 G needle. An aliquot (t=0) was dispensed directly into a 20-cc Type I clear glass vial for visual inspection. […]
Each aliquot was examined under a light box equipped with a black and white background. […] The color and clarity of the aliquots were recorded accordingly.

Substance	Catheters with function restored [1] [%]	Lytic activity in clot lysis effectiveness test ([2]; diluted down to 0.01 mg/mL in normal saline)	Lytic activity after storage ([2]; diluted to 0.01, 0.02, and 0.05% mg/mL in 0.9% NaCl IV bags, after 24 hours of storage at ambient conditions)	Specific activities by the clot-lysis activity assay ([2]; fractions collected over 24 hours, all concentrations in NS, in the majority of cases)	Visual inspection ([3]; 0.1 mg/mL in NS, immediately after dilution and throughout the infusion period)	Visual inspection ([3]; diluted to 0.01, 0.025, and 0.05 mg/mL with NS, initially and after 24 hours of infusion (no filter) at room temperature)
urokinase	59					
alteplase t-PA: tissue plasminogen activator in a native form such as ACTIVASE® alteplase t-PA; in Example 7 diluted in 0.9% NaCl	89	lytically active	lytically active	greater than 90%	slightly cloudy solution	colorless, clear to slightly opalescent solutions
